Results published in patent US20060141546A1, “Bacterial test method by glycated label binding” (priority 2002, published 2006).

Legend:
[1] = system: Staphylococcus aureus (Sf) strains # 3 and #6; test: Bacteria assay by binding of intestinal ALP (Example 1, FIG. 8); settings: gram positive, strains # 3 and #6, FIG. 8
Protocol: (§1) Bacterial cells ([…] to 10^8 cells/mL) were washed twice with water after centrifugation to separate the cells into a packed pellet from supernatant liquid. The washed cells in pellet form were suspended in 40 μL water and 10 μL of aqueous bovine intestinal alkaline phosphatase (ALP) was added (2 μg or […]). The mixture was left at room temperature for 30 minutes and then centrifuged, after which the bacterial pellets were washed with water 4-5 times (50 μL). All the washing supernatants were combined. A blank without cells was diluted in the same way. The final pellets were suspended in 50 μl water and both supernatants and cell suspensions were assayed for detection of ALP binding using 2.5 μl of 0.005 M para-nitrophenol phosphate (PNPP) in Tris or EPPS buffer at pH 7.5. The hydrolysis of the substrate results in yellow (PNPP) or blue-green (BCIP) color that is directly proportional to the amount of ALP bound to the bacteria. Alkaline phosphatase (ALP) activity was tested using common substrates such as BCIP (bromo-chloro-indolyl-phosphate) forming a blue/green color in Tris buffer, pH 7.5. After 10 minutes at room temperature the samples were read in a plate reader (Biotek Powerwave Absorbance Reader) at a wavelength of 405 nm. The parallel set of bacteria was run without addition of ALP as controls.

bacteria [2] = test: Effect of divalent cations on ALP binding to bacteria (Example 7, Table 5, FIG. 12)
Protocol: Bacterial cells (1 to 4.5×10^7 cells/mL) were washed twice with water after centrifugation to separate cells into a packed pellet from the supernatant liquid. The washed cells in pellet form were suspended in 20 μL of EPPS buffer (50 mM at pH 8.0) and 30 μL of water. […]
The mixture of glycated protein and bacterial cells was left at 25° C. for 15 minutes. The mixture was then centrifuged at 30,000 rpm for 30 minutes after which the bacterial cells formed a pellet at the bottom of the tube and were washed with water 4-5 times (50 μL). Centrifugation allows separation of glycoprotein bound to the bacteria cells from unbound glycated protein(s).
After washing, the bacterial pellets were suspended in 50 μL of borate buffer (25 mM at pH 9.0). A 5 μL aliquot of the suspension was assayed for detection of ALP binding by adding 5 μL of para-nitrophenol phosphate (PNPP, 100 mM), 50 μL sodium borate buffer (25 mM at pH 9.0) and 140 μL of water. […] The color was read at 405 nm using an ELISA plate reader between 15-30 min; the absorbance is directly proportional to the amount of ALP bound to the bacteria cell.

[3] = system: gram negative and positive bacteria; test: Bacteria assay by binding of intestinal ALP, all strains (Example 1); settings: for ALP binding to bacterial strains tested: FIG. 8, Table 1
Protocol: as §1
(§2) The bacteria used to illustrate the invention represent the extremes of gram positive (S. facaelis) and gram negative (E. coli) bacteria. […] The nature of the difference in the cell walls is greatest between the gram negative and positive forms of bacteria.

Pseudomonas aeruginosa = test: ALP binding compared to E. coli (Table 1)
Protocol: as §1, §2

Morganella morganii = test: ALP binding compared to E. coli (Table 1)
Protocol: as §1, §2

Klebsiella oxytoca = test: ALP binding compared to E. coli (Table 1)
Protocol: as §1, §2

Serratia marcescens = test: ALP binding compared to E. coli (Table 1)
Protocol: as §1, §2

Proteus mirabilis = test: ALP binding compared to E. coli (Table 1)
Protocol: as §1, §2

Diphtheroids (gnb) = test: ALP binding compared to E. coli (Table 1)
Protocol: as §1, §2

Citrobacter freundii = test: ALP binding compared to E. coli (Table 1)
Protocol: as §1, §2

Klebsiella pneumoniae = test: ALP binding compared to E. coli (Table 1)
Protocol: as §1, §2

Citrobacter koseri = test: ALP binding compared to E. coli (Table 1)
Protocol: as §1, §2

bacteria [4] = test: Saturation binding / Scatchard analysis of glycoprotein binding to bacteria; settings: ALP to bacteria
From the text: There are several methods used to measure binding affinity. The methods of Lineweaver-Burke and Eadie-Hofstee are most popular. The data is used to create a Scatchard plot, where the X axis is the glycoprotein bound and the Y axis is glycoprotein bound divided by the free glycoprotein. From this graph the number of binding sites (also called Bmax, receptor number) is the X intercept and binding constant (also called affinity constant, Kd, or the equilibrium dissociation constant) is the negative reciprocal of the slope. Changes in slope reflect changes in the nature of binding sites and are often used to separate high affinity binding from low affinity binding sites. Commercially available software (GraphPad software Inc) exist to perform this analysis. Only high affinity binding was used in the instant experiments.
Experimentally, saturation binding experiments are used measure glycoprotein binding at equilibrium at various concentrations of the glycoprotein. The saturation curve is a first constructed to plot the concentration of glycoprotein ligand on the X axis versus the all glycoprotein bound on the cell expressed as concentration of glycoprotein bound/number of bacteria cells on the Y axis. […] This same data is next plotted as a Scatchard plot with the number of binding sites and binding constants determined for the pairs of glycoprotein and bacteria tested. […]

Lactobacillus = test: ALP binding compared to Sf (Table 1)
Protocol: as §1, §2

Streptococcus viridans = test: ALP binding compared to Sf (Table 1)
Protocol: as §1, §2

Group B streptococcus = test: ALP binding compared to Sf (Table 1)
Protocol: as §1, §2

[5] = system: Coagulase negative staphylococcus sp.; test: ALP binding compared to Sf (Table 1)
Protocol: as §1, §2

[6] = system: Yeasts including Candida albicans; test: ALP binding compared to Sf (Table 1)
Protocol: as §1, §2

B1: ALP: bovine intestinal alkaline phosphatase, glycoprotein enzyme that binds bacteria and serves as label (protein, UniProt P19111 20-506, looked up)
Intestinal-type alkaline …: LVPVEEEDPAFWNRQAAQALDVAKKLQPIQTAAKNVILFLGDGMGVPTVTATRILKGQMNGKLGPETPLAMDQFPYVALSKTYNVDRQVPDSAGTATAYLCGVKGNYRTIGVSAAARYNQCKTTRGNEVTSVMNRAKKAGKSVGVVTTTRVQHASPAGAYAHTVNRNWYSDADLPADAQMNGCQDIAAQLVNNMDIDVILGGGRKYMFPVGTPDPEYPDDASVNGVRKRKQNLVQAWQAKHQGAQYVWNRTALLQAADDSSVTHLMGLFEPADMKYNVQQDHTKDPTLQEMTEVALRVVSRNPRGFYLFVEGGRIDHGHHDDKAYMALTEAGMFDNAIAKANELTSELDTLILVTADHSHVFSFGGYTLRGTSIFGLAPSKALDSKSYTSILYGNGPGYALGGGSRPDVNDSTSEDPSYQQQAAVPQASETHGGEDVAVFARGPQAHLVHGVEEETFVAHIMAFAGCVEPYTDCNLPAPTTATSIPD
[1]
  ALP binding to bacteria (ALP activity of suspended cells after ALP treatment and washings): found to bind the ALP
Bacteria [2]; No. cation
  O.D. at 405 nm, With ALP: 0.30 O.D.
Bacteria [2]; different strains of bacteria, 1 mM Zn^2+, FIG. 12
  bacteria concentration at which ALP binding could be monitored: 10^5
[3]
  ALP binding to bacterial strains tested: binding occurred to all other gram negative and positive bacteria
[3]; listed as intestinal ALP
  ALP binding to bacterial strains tested: binding to all bacterial strains tested
[3]; FIG. 9
  amount of ALP bound or activity generated versus amount of bacteria cells: directly proportional to the amount of bacteria cells present
[3]; changes of strain among gram negative and positive bacteria
  difference of ALP binding between strains relative to S. facaelis or E. coli: ≤ 12%
Pseudomonas aeruginosa
  ALP binding relative to E. coli: 99%
Morganella morganii
  ALP binding relative to E. coli: 95%
Klebsiella oxytoca
  ALP binding relative to E. coli: 111%
Serratia marcescens
  ALP binding relative to E. coli: 101%
Proteus mirabilis
  ALP binding relative to E. coli: 104%
Diphtheroids (gnb)
  ALP binding relative to E. coli: 91%
Citrobacter freundii
  ALP binding relative to E. coli: 89%
Klebsiella pneumoniae
  ALP binding relative to E. coli: 105%
Citrobacter koseri
  ALP binding relative to E. coli: 93%
Bacteria [4]; Scatchard analysis, high affinity binding
  binding constant: 5×10^+6
Bacteria [4]; estimated from the Scatchard analysis
  number of binding sites: 590
Lactobacillus
  ALP binding relative to sf.: 100%
Streptococcus viridans
  ALP binding relative to sf.: 102%
Group B streptococcus
  ALP binding relative to sf.: 96%
[5]
  ALP binding relative to sf.: 88%
[6]
  ALP binding relative to sf.: 93%
